A short description of the series: yeast display, Sf9 membrane polyspecificity reagent, FACS + sequencing; frameworks hold sequencing errors. The procedure, abridged:
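Galactose induction of a Saccharomyces cerevisiae BJ5465 synthetic nanobody display library ran 36–48 hours. The cells were then stained for 1 hour at 4 °C with 10% biotinylated, detergent-solubilized Sf9 membrane reagent, pulled down on streptavidin microbeads and FACS-sorted into low and high (top ~1%) gates on expression and reagent-binding fluorescence. Labels for polyreactivity follow the gate of origin.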
For the sequence “QVQLVESGGGLVQAGGSLRLSCAASGRIFNYNAMGWYRQAPGKERELVAAISSGGDTYYADSVKGRFTISRDNAKNTVYLQINSLKPEDTAVYYCGSTFVVKGTRFGYWGQGTQVTVSS”, the “polyreactivity (PSR sort gate)” value is listed as “high polyreactivity”.

Consider “QVQLVESGGGLVQAGGSLRLSCAASGRIFNYYAMRWYRQAPGKETELVAAITSSGGSTYYADSVKGRFTISRDNAKNTVYLQMNSLKPEDTAVYYCAAVSTATIRGGYWGQGTQVTVSS”, for which the “polyreactivity (PSR sort gate)” value was “high polyreactivity”. On to “QVQLVESGGGLVQAGGSLRLSCAASGRIFNYYDMGWYRQAPGKEREFVAAISWRGTSTRYADSVKGRFTISRDNAKNTVYLQMNSLKPEDTAVYYCAADDYARRFSFKYDYWGQGTQVTVSS”, for which the “polyreactivity (PSR sort gate)” value is on record as “high polyreactivity”. As for “QVQLVESGGGLVQAGGSLRLSCAASGRIFPAYAMGWYRQAPGKERELVASIRRGGITYADSVKGRFTISRDNAKNTVYLQMNSLKPEDTAVYYCARPQWRDWYGYWGQGTQVTVSS”, the “polyreactivity (PSR sort gate)” value was “low polyreactivity”. Regarding “QVQLVESGGGLVQAGGSLRLSCAASGRIFPAYVMGWYRQAPGKERELVATIDNGGCTYYADSVKGRFTISRDNAKNTVYLQMNSLKPEDTAVYYCARDRHVRWGLKMDYWGQGTQVTVSS”, the “polyreactivity (PSR sort gate)” value is recorded as “low polyreactivity”. In the case of “QVQLVESGGGLVQAGGSLRLSCAASGRIFPAYVMGWYRQPPGKERELVATIDNGGGTYYADSVKGRFTISRDNAKNTVYLQMNSLKPEDTAVYYCARDPHVRWGLKMDYWGQGTQVTVSS”, the “polyreactivity (PSR sort gate)” value was “low polyreactivity”. For the sequence “QVQLVESGGGLVQAGGSLRLSCAASGRIFPEYAMGWYRQAPGKERELVAAITSGGNYADSVKGRFTISRDNAKNTVYLQMNSLKPEDTAVYYCAAVYLWYGSWPLHFAAYDYWGQGTQVTVSS”, the “polyreactivity (PSR sort gate)” value is on record as “low polyreactivity”. Consider “QVQLVESGGGLVQAGGSLRLSCAASGRIFPFNAMGWYRQAPGKERELVAAISSSGGSTYYADSVKGRFTISRDNAKNTVYLQMNSLKPEDTAVYSCAATRNSDGMGYWGQGTEVTVSS”, for which the “polyreactivity (PSR sort gate)” value is on record as “low polyreactivity”. Turning to “QVQLVESGGGLVQAGGSLRLSCAASGRIFPFYAMGWNRQAPGKERELVAAITSSGGRTYYADSVKGRFTISRDNAKNTVYLQMNSLIPEDTAVYYCAADDTDYPEYDYWGQGTQVTVSS”, the “polyreactivity (PSR sort gate)” value is “high polyreactivity”. In the case of “QVQLVESGGGLVQAGGSLRLSCAASGRIFPFYVMGWYRQAHGKERELVATINWSGGSTYYADSVKGRFTISRDNAKNTVYLQMNRLKPEDTAVYYCNGAPSDDYDYWGQGTQVTVSS”, the “polyreactivity (PSR sort gate)” value is “low polyreactivity”. As to “QVQLVESGGGLVQAGGSLRLSCAASGRIFPFYVMGWYRQAPGKERELVATINWSGGSTYYADSVKGRFTISRDNAKNTVYLQMNSLKPEDSAVYYCNAAPSEDYDYWGQGTQVTVSS”, the “polyreactivity (PSR sort gate)” value is listed as “low polyreactivity”.

With “QVQLVESGGGLVQAGGSLRLSCAASGRIFPFYVMGWYRQAPGKERELVATINWSGGSTYYADSVKGRFTISRDNAKNTVYLQMNSLKPEDTAVYYCNAAPSDDYDYWGQGTQVTVSS”, the “polyreactivity (PSR sort gate)” value was “low polyreactivity”. On to “QVQLVESGGGLVQAGGSLRLSCAASGRIFPFYVMGWYRQAPGKERELVATINWSGGSTYYADSVKGRFTISRDNAKNTVYLQMNSLKPEETAVYYCNAAPSDDYDYWGQGTQVTVSS”, for which the “polyreactivity (PSR sort gate)” value was “low polyreactivity”. For “QVQLVESGGGLVQAGGSLRLSCAASGRIFPGYAMGWYRQAPGKERELVAGISNDASTNYADSVKGRFTISRDNAKNTVYLQMNSLKPEDTAVFYCAAEISYLSVPRYDYWGQGTQVTVSS” the value was “low polyreactivity”. In the case of “QVQLVESGGGLVQAGGSLRLSCAASGRIFPGYGMGWYRQAPGKERELVASISVGGGSTYYADSVKGRFTISRDNAKNTVYLQMNSLKPEDTAVYYCAADPSPYGDEYDYWGQGTQVTVSS”, the “polyreactivity (PSR sort gate)” value is “low polyreactivity”. With “QVQLVESGGGLVQAGGSLRLSCAASGRIFPHNAMGWYRQAPGTERELVAAISSNVGSTYYADSVKGRFTISRDNAKNTVYFQMNSLKPEDTAVYYCAKYRYFAGDGDYWGQGTQVTVSS”, the “polyreactivity (PSR sort gate)” value was “low polyreactivity”. In the case of “QVQLVESGGGLVQAGGSLRLSCAASGRIFPHYARGWYRQAPGKERELFAAINVDGGRTYYADSVKGRFTISRDNAKNTVYLQLTSLKPEDTAVYYCAAKPVLYHEQDYGYAVEFNYWGQGTQVTVSS”, the “polyreactivity (PSR sort gate)” value is “low polyreactivity”. In the case of “QVQLVESGGGLVQAGGSLRLSCAASGRIFPINVMGWYRQAPGKERELVAAISGRGGSTYYADSVKGRFTISRDNAKNTVYLQMNSLKPEDTAVYYCNAVRVSIPYIYTMDYWGQGTQVTVSS”, the “polyreactivity (PSR sort gate)” value was “high polyreactivity”.

For the sequence “QVQLVESGGGLVQAGGSLRLSCAASGRIFPIYAMGWYRQAPGKERELVATIRYSSGTTYYADSVKGRFTISRDNAKNTVYLQMNSLKPEDTAVYYCAADSQWAYISEYDYWGQGTQVTVSS”, the “polyreactivity (PSR sort gate)” value is recorded as “low polyreactivity”.

Take “QVQLVESGGGLVQAGGSLRLSCAASGRIFPKYAMGWYRQAPGKERELVAAISRRGSSTYYADSVKGRFTISRDNAKNTVYLQMTSLKPEDTAVYYCATDARDGHDYWGQGTQVTVSS”: the “polyreactivity (PSR sort gate)” value was “high polyreactivity”.

“QVQLVESGGGLVQAGGSLRLSCAASGRIFPLYAMGWYRQAPGKERELDAAISKRDGSTSYADSVKGRFTISRDNAKNTVYLQMNSLKPVDTAVYYCNARNHVQVLFRRDYWGQGTQVTVSS”: the “polyreactivity (PSR sort gate)” value is “low polyreactivity”. For “QVQLVESGGGLVQAGGSLRLSCAASGRIFPLYTMGWYRQAPGKERELVAAISVSGGRTSYADSVKGRFTISRDNAKNTVYLQMNSLKPEDTAVYSCAARYYVTSYFSSMYYWGQGTQVTVSS” the value was “high polyreactivity”; for “QVQLVESGGGLVQAGGSLRLSCAASGRIFPPNAMGWYRQAPGKERELVAGITSSGDTTYYADSVKGRFTISRDNAKNTVYLQMTSLKPEDTAVYYCAKDEVYADDRSALFDYWGQGTQVTVSS”, “low polyreactivity”; for “QVQLVESGGGLVQAGGSLRLSCAASGRIFPRNTMGWYRQATGKERELVAAISVSGGSTYYADSVKGRVTISRDNAKNTVYLQMNRLKPEDTAVFFCAAAKCYRSGSWYEYWGQGTQVTVSS”, “high polyreactivity”.

In the case of “QVQLVESGGGLVQAGGSLRLSCAASGRIFPRYALGGYRQAPGKERELVAGISRSGGSTYYADSVKGRFTISRDNAKNTVYLQMNSLKPEDTAVYYCNTGGHYGARKYDYWGQGTQVTVSS”, the “polyreactivity (PSR sort gate)” value was “low polyreactivity”.

“QVQLVESGGGLVQAGGSLRLSCAASGRIFPSNAMGWYRQAPGKERELVAAISFSGGSTYYADSVKGRFTISRDNAKNTVYLQMNSLKPEDTAVYYCAKSGVVDWGQGTQVTVSS”: the “polyreactivity (PSR sort gate)” value is on record as “low polyreactivity”. For “QVQLVESGGGLVQAGGSLRLSCAASGRIFPSYAMGWYRQAPGKERELVAAISDSDGSTYYADSVKGRFTISRDNAKNTVYLQMNSLKPEDTAVYYCAAEGSYPAYDYWGQGTQVTVSS”, the “polyreactivity (PSR sort gate)” value is reported as “low polyreactivity”.

Turning to “QVQLVESGGGLVQAGGSLRLSCAASGRIFPSYAMGWYRQAPGKERELVAGIRSGGGSTYYADSVKGRFTISRDNAKNTVYLQMNSLKPEDTAVYYCAADPGLYGDYPLAEDYWGQGTQVTVSS”, the “polyreactivity (PSR sort gate)” value was “low polyreactivity”. Take “QVQLVESGGGLVQAGGSLRLSCAASGRIFPTYAMGWSRQAPGKERELVAAISRRTTRTYYADSVKGRFTISRDNAKNTVYLQMNSLKPEDTAVYYCAARLYSSVVRYRYGYWGQGTQVTVSS”: the “polyreactivity (PSR sort gate)” value is “high polyreactivity”. To “QVQLVESGGGLVQAGGSLRLSCAASGRIFPTYTMGWYRQAPGKERELLAAISGRGGNTYYADSVKGRFTISRDTAKNTVYLQMNSLKPEDTAVYYCAARYPVRNGYWGLGTQVTVSS” belongs “high polyreactivity”; to “QVQLVESGGGLVQAGGSLRLSCAASGRIFPTYTMGWYRQAPGKERELVAAITSGGTTYYADSVKGLFTISRDNAKNTVYLQMNSLKPEDTAVYSCAALRPRRGYYYWGQGTQVTVSS”, “high polyreactivity”; to “QVQLVESGGGLVQAGGSLRLSCAASGRIFPVYAMGWYRQAPGKERELVASISSSGARTYYADSVKGRFTISRDNAKNTVYLQMNSLKPEDTAVYYCNAVRYFSSHSFISDYWGQGTQVTVSS”, “low polyreactivity”. For the sequence “QVQLVESGGGLVQAGGSLRLSCAASGRIFPVYAMGWYRQAPGKERELVATITSRTGRTYYADSVKGRFTISRDNAKNTVYLQMNSLIPEDTAVSYCAARGYYSAPGYGYWGQGTQVTVSS”, the “polyreactivity (PSR sort gate)” value is listed as “high polyreactivity”. To “QVQLVESGGGLVQAGGSLRLSCAASGRIFPWYAMGWYRQAPGKERELVAAIKWDSGSTYYADSVKGRFTISRDNAKNTVYLQMNSLKPEDTAVYYCAAEYVAWYYGLYFSYDYWGQGTQVTVSS” belongs “high polyreactivity”; to “QVQLVESGGGLVQAGGSLRLSCAASGRIFPWYTMGWYRQAPGKESELVATIRGSGGSTHYADSVKGRFTISRDNAKNTVYLQMNSLKPEDTAVYYCATDRPRYRYQYKFDYWGQGTQVTVSS”, “low polyreactivity”. For the sequence “QVQLVESGGGLVQAGGSLRLSCAASGRIFPYNAMGWYRQAPGKERELVASIRTGGGRTRYADSVKGRFTISRDNAKNTVYLQMNSLKPEDTAVYYCNADSSPRWYHYPTRYDYWGQGTQVTVSS”, the “polyreactivity (PSR sort gate)” value is “low polyreactivity”. As to “QVQLVESGGGLVQAGGSLRLSCAASGRIFPYYAMGRYRQAPGKERELVARITRNGGTTYYADSVKGRFTISRDNAKNTVYLQMNSLKPEDTAVYYCAATYSVPYYRSWPEYDYWGQGTQVTVSS”, the “polyreactivity (PSR sort gate)” value is “high polyreactivity”. In the case of “QVQLVESGGGLVQAGGSLRLSCAASGRIFPYYAMGWYRQAPGKERELVAAITTSGGSTYYADSVKGRFTISRDNAKNTVYLQMNSLKPEDTAVYYCARDLYYYSPYDEYDSWGQGTQVTVSS”, the “polyreactivity (PSR sort gate)” value was “low polyreactivity”. Consider “QVQLVESGGGLVQAGGSLRLSCAASGRIFPYYAMGWYRQAPGKERELVASIRYSAGNTYYADSVKGRFTISRDNAKNTVYLQMNSLKPEDTAVYYCAKLYRSYTIRPVWGRYDYWGQGTQVTVSS”, for which the “polyreactivity (PSR sort gate)” value is reported as “low polyreactivity”. As for “QVQLVESGGGLVQAGGSLRLSCAASGRIFPYYAMGWYRQAPGKERELVATISSGGRTNYADTVMGRFTISRDNAKNTVYLQMNSLKPEDTAVYYCAADYRKSRVFYGLYYWGQGPQVTVSS”, the “polyreactivity (PSR sort gate)” value was “high polyreactivity”. For “QVQLVESGGGLVQAGGSLRLSCAASGRIFPYYGMGWYRHAPGKERELVAAITWDSGSTYYADSVKGRFTISRDNAKNTVYLQMNSLKPEDTAVYYCAAPISFYSPAEYYYWGQGTQVTVSS”, the “polyreactivity (PSR sort gate)” value is reported as “low polyreactivity”.
